Results taken from the DeepSol protein solubility set.

assay: soluble on expression in E. coli; label from the status in PepcDB or PDB records

| Sequence | soluble on expression in E. coli |
| --- | --- |
| MPAALIKDFLLTQGLKLPLDEVRAAYLTAQTVMDMGTASIDRSVLWRSDEGWKLADYLSCDNVREDALKRLFMALDSVFSRSTGVRSAAVYALMPSENQAFQLICLSRQGEVLENLWDLDEAAGKVSLACRSAQSGWMNVASDVRRWLDLGELSGERNHASAAQISIPVCTESGGVLGVVHVEFECAECAGTAAQVEWVALALALSEPLKLLLGMSAGKDGSEDV | not soluble |
| MPADTRPAAIVLMGPTASGKSQLAIDIAKRWGGEVISVDSVLVYRGLDIGTAKPNAAMRASVPHHLIDICEPWETYSAADFAHDARAAIDMIVRRGALPILTGGTGLYFRALLAGLSDMPPAHPEIRAMIAAEAKRDSWAALHTRLAEVDAITAARIHATDPQRIQRALEVYLVSGQSMSDWQNQPPKQRLPLRVLKLVLAPTHRKVLHFRIAQRFKAMLDNGLLAEVNALRTHPSIHAMARPLDLPAMRAVGYRQCWEHLDGMYTAEMLYQRSVAATRQLAKRQLTWLRGELDALWFDPEHDQSRIEKVMEAFLNRLEHHHHHH | not soluble |
| MPAGFTHFRLVTRNNMKSLTTETALDILIAWLQDNIDCGSGIIFDNDEDKTDSAALLPCIEQAREDVRTLRHLQLLHQNR | soluble |
| MPALDLIRPSVTAMRVIASVNAEFARELKLPPHIRSLGLISADSDDVTYIAADEATKQAMVEVVYGRSLYAGAAHGPSPTAGEVLIMLGGPNPAEVRAGLDAMVANIENGAAFQWANDAENTAFLAHVVSRTGSYLSSTAGITLGDPMAYLVAPPLEATYGIDAALKSADVQLVTYVPPPSETNYSAAFLTGSQAACKAACNAFTDAVLEIARNPIQRA | not soluble |
| MPATTSIPPVTAPGTGGEASSFNVDELIQYVLQGKPLSEPQVARLCQKAREVLEKEENVHTVRAPVTVCGDIHGQFHDLLELLKIGGLPPDTNYLFMGDYVDRGYYSVETVTLLLLFKIRYPERVQILRGNHESRQITQVYGFYDECVRKYGSANVWKLLTDLFDYLPLAAVVENEIFCLHGGLSPTLDSLAHIRSLERVQEVPHEGPMCDLLWSDPEDKDGWGISPRGAGFTFGADITEQFCHNNGLKTIARAHQLVAEGYSWAHSDKLVTIFSAPNYCYRCGNLAGLLELDEHMNKCFFQFDPAPRRGEAQVSKKTPDYFL | not soluble |
| MPDDKAVNGRRDFLRKTLTVIPAVTLAGYGVGHAMQTPAAEQDKPRERYQPRFFTNTEWAFVNAAVARLIPSDDNGPGAIEAGVPEFIDRQMETPYGHGALWYMQGPFVTDAAPEFGHQLKLVPRDIYRVGIAALERWSKANQGKPFAELEPSAQDDILQRLEAGQIDLQDLPAKLLFGQLLQNTHEGFFSDPQHGGNRGLVGWKLVGFPGARADFMDWADRGEKYPFPPVAISGERG | not soluble |
| MPDGDFITLDRVEKVFDVRRKTGFLRSERRRVRAVDSLSFTVARGEMVGYIGPNGAGKSTTIKMLTGILTPSGGRLRVAGIDPSRERTRLAARIGVVFGQRTTLWWDLPLIDSYRLMHRMYRIPDGRYRENLDRCVELLELGDLLDVPVRQLSLGQRMRGDIAAALLHDPEVLYLDEPTIGLDVISKARVREFLRELNAERGTTVLLTTHDLQDIEQLCGRVMVIDHGRLMYDGPLAGLHEVGDSERTLVVDLARELPPIEAAPARVVKVEGPRQWLAFPASESAAPLVARIAAAYPLVDLSVREPDIEAVIAKMLQSMGDTPQPPPEQAEHVVSLEHHHHHH | soluble |
| MPDLFFVTLYDRQDLLKESMTFLNSEWPRSDGSREHSQKKSCRQSPPMSFLLLNKENDEILGHSRITHLPNRDHALWIESVMIKKDQRGLGLGKFLMKSTEKWMTEKGFNEAYLSTDDQCRFYESLGYEKCDPIVHSTTATCIFPAMNHFQNAAASNPSFLSKIAQPSASSTVSASAPPPPPPPPMAPKMVTRSTSPIVDVNTIDHQYMRKWLKPTE | soluble |
| MPDQISVSEFVAETLEDYKAPTASSFTRTAQCRNTAAAIEEDAVTYDDVHVNFTREEWNLLHPSQKSLYKDVMLETYWNLTVIGYTWENHHIERHCQSSRRNERFSLHCQLP | not soluble |
| MPDQPSHNPAEHTTGEAPAPDALRADARRNRERVLEAAREVFSARGVDAPMSAVARRAGVGVATLYRRFPTRSSLVAAAFDDQLTVCAAAFDEALADPDPGHGLYTLLRKVCTTLVTDRGFETVFMAGFPASLDYDRERACAEERLAHLVRRARDAGRLREDFSPADIPLLLLAVSGLASQPPETAVPAAHRLLTYLFQSFQADPPPRPAPLPPAPTLDLSGLHRPAERP | not soluble |
| MPDRPQHPTASRQSSMVSWNHGAAGWLHCVQCGSATNPTACLDWLPPIHARSGPMYAEHDVVVLTRDVPDKSLIAGDVGAVVGRYAAGGYEVDFTAANGCTVAVVTLAGDDIRPRRRREIPHVREVA | not soluble |
| MPEPDKQATRKKRTTSSLTDSTVFDPAKQVLWSRPGYLVRRLNQIHYALFYEECKTQNVTPVQYGVLTALSLSPWLDQTAIGMELGLDRTTTADVIKRLQERGLVERRVNPNDKRSRQAVITQEGLRIMGLLQGGMARAQQRLLEPLSPRNREIFMKLLSTLVDANNQYSRTALKAM | not soluble |
| MPFKDQLFLASQYLAPHHLVSRLMGRAADCRAPEIKNRMIARFVRRYNVDMSEALVEDPLAYASFNDFFTRALKPDARPLDDEPGAALCPADGAISQIGAIDNGRIFQAKGHSFGLTDLLGGDAERAAPFAGGQFATIYLSPRDYHRVHMPLAGTLREMVHVPGRLFSVNPLTARSVPELFARNERVACLFDTEHGPMALVLVGAMIVASIETVWAGLVTPHKRQVRSVRYDAAARAPIHLDKGAEMGRFKLGSTVIVLFGPKRLRWLDLPSVRGPVRMGETLALPASTAISFPESELEHHHHHH | not soluble |
| MPFPFSRLFSFGVEHETGYVSRQSGRGRVYKGGGYSPFTITFQVSTHRSTMSDVTVAETPAVKTPTKAPKAPKSKTTKEPKAKVAAAHPPFINMVTAAISSLKERKGSSKIAILKYITANYKVGDQLTKINSRLRAALNKGVASKALVQSVGNGASGRFRVAEKAAATKKPVAKKPVAKKAATGEKKAKKTTVAKKTGDKVKKAKSPKKIAKPAAKKVAKSPAKKAAPKKAPAKKAAAPKA | not soluble |
| MPGKRRFRRSPVKYDFFTRLLQTGFLSTDSLLYPESQFHICTQLSSQDAYADNLEHHHHHH | not soluble |
| MPGVEPYEPLQLMGRDVYIREGCVGCHSQQVRTLQAEVQRYGPYSVAGESVFDHPFLWGSKRTGPDLARVGERYSDEWHRIHLRDPRAVVPESNMPAYPWLQHADLTGQNVAQRMQALRRLGVPYTDEAIAAAPAAIAGKTEEDALVAYLQALG | not soluble |
| MPILGHNILKIEFEKLQTLGGKIEVSLRPTIRNLRLGEMHLPSGKVKGIEVDVDYIITYSPEVARASIKVRVFYVPRNKEDIDNILDEWEDRKVLPGELVAEVVNFTTSELMPIAMYIAKEMRIPYPVPLPRAVVRGE | soluble |
| MPISETWLLPDGVADVLPEQAQVVETLRRQALDFLASRGYQLVYTPFIEYIESLSLLSESNHDLDLVTFKVIDQLSGRLLGVRADMTPQVARIDAHVRSIEGVARYCYAGTVLHTKPQNFNSSRAPLQLGAELYGHQSLEADIEMVDVMLGLIQQAHNLEGLHLDLGHVGLFRSLVKRAGLSKQVEQDLSDLYQRKALPELEEVTKTLAFGSDFYALGRYASDLNALEQHLSQDVLNDASFKTSLDDLKTTLSQIQTRWPNLRIGIDVVELRSYHYHTGLMYAVYAPNRAAPLAQGGRYDGIGEHFGRARPATGFSCDLYALCVGQFKEIETIVAPAGQDQQLLGAIAQARQNGLRVIQLLGNDDLSSVPYATHKMELAQDQWQINKI | not soluble |
| MPKEWLAEDLSEQYVADYKAFNFVDGEGVRCSLYLSGCPFHCPGCYNVAAQNFHYGQPYSQELEDQIIEDLGQDYVQGLTLLGGEPFLNTQVGIRICERIRSEFGNTKDIWSWSGYTWEELQQDSEDKLKMLSLIDILVDGRFLQDKMDLSLQFRGSSNQRIIDVPKSLTAGKVVIWDKLVKLEHHHHHH | soluble |
| MPKINTSSSGWLADISLFYEKRGTNTKLVHREQVGPLMVQRPFYPETGIAHTYLLHPPGGVVGGDQLNINIHVSPQAHSLLTTPGATKFYRSSGATSSQTQNLTVESDGFLEWLPQENIFFPDSQAQLKTQVELHKNAHFIGWEMNCFGRPVLDEIFENGFVTGRTNIKVDDQLLLSESMYIDSIDEIKHAAGMRHYPMLGNLYIYPASEALEEKLRTLIDENFHEQPELFGSSNPICGITEIDGLLVIRYLGHQTEPMMACFSTLWQHTRQHWLGKLPEVPRIWATLEHHHHHH | not soluble |
| MPKLYVIPTPIGNLKDITLRALEVLKEVNYIACEDTRRTMILLNHYGIKGKKLISYYEPKEEKQIPKILKVLEKEDVALVTDAGMPAISDPGYRLIRKCIEKGIEIEVLPGPSAVITALVGSGLPPDRFLFVGFPPKKGTKGFFEELKSCEDTTVILFENPNRLLKTLKIIHEVFGNVQACVARELTKLHEEYIRGNLEEIIQELESREKIKGEVVVLFRILEHHHHHH | soluble |
| MPKWGNINERRNQLHEVIRLSGMNLIIDDTDHPLIIKVASIQSARMQVYFIDNDDYFQNRLQTADENGVEYDDNDSRAIFYARGVLETVKKLRWCPDVIHCHGWMTALAPLYIKKAYKDEPSFRDAKVVFSVYEDDFKNTLSEDFATKLMLKGITKKDLAGLKEPVDYAALCKLAVDYSDGIIQNSAKVDESIIEYARQSGKLVLDYQDPENYANACNEFYDQVWETTTNKEEELEHHHHHH | soluble |
| MPLEASELKPTAGPLEASELKPTAGPLEASELKPTAGPLEASELKPTAGPLEASELKPTAGPLEASELKPTAGPLEASELKPTAGMEKTKKIAVMSGKGGVGKTTVAVNLAVALAAEGYQVGLLDLDLHGPNVQRMLGVSLPPSEGEKIVPAKYGDSLKVFSLAMILQEGAPVIWRGPLKHKAIEQLTRDVEWGDLDYLICDLPPGTGDEALSTFQIIKPDAVIVVSTPQKVAGDDVRRAINFVKRLSGKILGLVENMSYLVCPNCGEKIYVFGKGETEKLAEEFGIPLIARIPMDPEVVSLSDEGRPAVVYKRGTVIEEEFKKIVEKVLSLLEHHHHHH | not soluble |
| MPLFKRRDGSGPAPNATIREKYDFRDVLGTGAFSKVFLAESKSDAGQMYAVKCIDKKALKGKEESLENEIKVLRKLRHNNIVQLFDTYDEKQFVYLVMELVTGGELFDRIVAKGSYTEQDASNLIRQVLEAVGFMHDNGVVHRDLKPENLLYYNQDEDSKIMISDFGLSKTEDSGVMATACGTPGYVAPEVLQQKPYGKAVDVWSIGVIAYILLCGYPPFYDESDANLFAQIIKGEYEFDAPYWDQISDSAKDFITHLMCCDPEARFTCQDALSHPWISGNTAYTHDIHGTVAVHLKKSLAKRNWKKAYNAAAAIRQLQMLRLSSNSNRLQKQASQQQPEPPTPAFHA | soluble |
| MPMPFTRDDDYDSDPEVQAEKEMAKKDPIGFAIDSSSLTSMKKAAAAAAKDQVSTTPPNLVIGSNGGAGTIATVPRSKSQDEIVKKQKTAGQSKALKKQRSRGISGCSSRKYSGYDDEMDEDFGDDEDYDHYGGQEVFDEDEEDTFVAKK | not soluble |
| MPMTLGYWNIRGLAHSIRLLLEYTDSSYEEKKYTMGDAPDYDRSQWLNEKFKLGLDFPNLPYLIDGTHKITQSNAILRYIARKHNLCGESEKEQIREDILENQFMDSRMQLAKLCYDPDFEKLKPEYLQALPEMLKLYSQFLGKQPWFLGDKITFVDFIAYDVLERNQVFEPSCLDAFPNLKDFISRFEGLEKISAYMKSSRFLPRPVFSKMAVWGNK | soluble |
